{
  "source": "paper PMC10093973",
  "about": "“The RNA-Binding and RNA-Melting Activities of the Multifunctional Protein Nucleobindin 1” (International Journal of Molecular Sciences, 2023)",
  "molecules": {"B1": {"name": "Nucleobindin 1 (NUCB1) lacking the signal peptide (1-30 aa) (natural protein, human, UniProt Q02818 31-461, looked up)", "chain": "RGAPNKEETPATESPDTGLYYHRYLQEVIDVLETDGHFREKLQAANAEDIKSGKLSRELDFVSHHVRTKLDELKRQEVSRLRMLLKAKMDAEQDPNVQVDHLNLLKQFEHLDPQNQHTFEARDLELLIQTATRDLAQYDAAHHEEFKRYEMLKEHERRRYLESLGEEQRKEAERKLEEQQRRHREHPKVNVPGSQAQLKEVWEELDGLDPNRFNPKTFFILHDINSDGVLDEQELEALFTKELEKVYDPKNEEDDMREMEEERLRMREHVMKNVDTNQDRLVTLEEFLASTQRKEFGDTGEGWETVEMHPAYTEEELRRFEEELAAREAELNAKAQRLSQETEALGRSQGRLEAQKRELQQAVLHMEQRKQQQQQQQGHKAPAAHPEGQLKFHPDTDDVPVPAPAGDQKEVDTSEKKLLERLPEVEVPQHL", "notes": "the C-terminal limit 461 is the one printed for NUCB1 ΔN, which was made with the same reverse primer; Cloned in pET-28a between EcoR I and Hind III from a HEK293T cDNA library; No removal of the His6 tag is described; also called Calnuc; intact NUCB1; source: E. coli BL21(DE3)/pRARE, purified (Ni-NTA agarose; analysed by SEC on Superdex 200)"}, "B2": {"name": "NUCB1 ΔN (239-461 aa) (domain or fragment, human, UniProt Q02818 239-461, looked up)", "chain": "DPNRFNPKTFFILHDINSDGVLDEQELEALFTKELEKVYDPKNEEDDMREMEEERLRMREHVMKNVDTNQDRLVTLEEFLASTQRKEFGDTGEGWETVEMHPAYTEEELRRFEEELAAREAELNAKAQRLSQETEALGRSQGRLEAQKRELQQAVLHMEQRKQQQQQQQGHKAPAAHPEGQLKFHPDTDDVPVPAPAGDQKEVDTSEKKLLERLPEVEVPQHL", "notes": "Cloned in pET-28a; source: E. coli BL21(DE3)/pRARE, purified (Ni-NTA agarose; analysed by SEC on Superdex 200)"}, "B3": {"name": "miR-200a-3p (ssRNA)", "RNA": "GUGGUCAGUCGAGUGGUAACACUGUCUGGUAACGAUGU"}},
  "key": {"[1]": {"molecular_target": "T1, NUCB1 CaBD (Homo sapiens) (UniProt Q02818)", "T1 sequence": "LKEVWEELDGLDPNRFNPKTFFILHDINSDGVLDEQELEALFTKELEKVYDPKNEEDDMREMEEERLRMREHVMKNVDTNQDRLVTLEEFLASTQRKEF", "experiment": "SPR", "settings": "SPR: 50 mM Tris-HCl pH 8.0, 200 mM NaCl, 0.1% Tween-20, with or without 2 mM CaCl2, 25 °C; 5'-biotinylated RNA immobilized, NUCB1 as analyte, 1:1 model"}, "NUCB1 ΔZ (Homo sapiens)": {"molecular_target": "T2, NUCB1 ΔZ (Homo sapiens) (UniProt Q02818)", "T2 sequence": "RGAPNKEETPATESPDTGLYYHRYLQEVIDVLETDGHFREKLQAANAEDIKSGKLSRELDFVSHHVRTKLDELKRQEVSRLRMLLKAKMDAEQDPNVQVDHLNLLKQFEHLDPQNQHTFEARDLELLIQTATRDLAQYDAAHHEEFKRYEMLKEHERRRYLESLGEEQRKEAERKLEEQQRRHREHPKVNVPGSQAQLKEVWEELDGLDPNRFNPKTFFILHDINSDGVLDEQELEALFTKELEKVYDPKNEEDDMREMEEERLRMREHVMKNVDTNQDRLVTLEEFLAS", "experiment": "SPR", "settings": "SPR: 50 mM Tris-HCl pH 8.0, 200 mM NaCl, 0.1% Tween-20, with or without 2 mM CaCl2, 25 °C; 5'-biotinylated RNA immobilized, NUCB1 as analyte, 1:1 model"}, "NUCB1 ΔN (Homo sapiens)": {"molecular_target": "T3, NUCB1 ΔN (Homo sapiens) (UniProt Q02818)", "T3 sequence": "B2 chain", "experiment": "SPR", "settings": "SPR: 50 mM Tris-HCl pH 8.0, 200 mM NaCl, 0.1% Tween-20, with or without 2 mM CaCl2, 25 °C; 5'-biotinylated RNA immobilized, NUCB1 as analyte, 1:1 model"}, "[2]": {"molecular_target": "the molecule itself", "experiment": "SEC; size-exclusion chromatography of the final preparations on Superdex 200 in 150 mM NaCl, 50 mM Tris-HCl (pH 8.0); oligomeric state of each protein"}, "NUCB1 CaBD": {"molecular_target": "T4, NUCB1 CaBD (Homo sapiens, UniProt Q02818 228-326)", "T4 sequence": "T1 sequence", "experiment": "SPR; SPR: 50 mM Tris-HCl pH 8.0, 200 mM NaCl, 0.1% Tween-20, with or without 2 mM CaCl2, 25 °C; 5'-biotinylated RNA immobilized, NUCB1 as analyte, 1:1 model", "settings": "protein: recombinant; tags: N-terminal His6; label: 5'-biotin"}, "NUCB1 ΔN": {"molecular_target": "T5, NUCB1 ΔN (Homo sapiens, UniProt Q02818 239-461)", "T5 sequence": "B2 chain", "experiment": "SPR; SPR: 50 mM Tris-HCl pH 8.0, 200 mM NaCl, 0.1% Tween-20, with or without 2 mM CaCl2, 25 °C; 5'-biotinylated RNA immobilized, NUCB1 as analyte, 1:1 model", "settings": "protein: recombinant; tags: N-terminal His6; label: 5'-biotin"}, "NUCB1 ΔZ": {"molecular_target": "T6, NUCB1 ΔZ (Homo sapiens, UniProt Q02818 31-320)", "T6 sequence": "T2 sequence", "experiment": "SPR; SPR: 50 mM Tris-HCl pH 8.0, 200 mM NaCl, 0.1% Tween-20, with or without 2 mM CaCl2, 25 °C; 5'-biotinylated RNA immobilized, NUCB1 as analyte, 1:1 model", "settings": "protein: recombinant; tags: N-terminal His6; label: 5'-biotin"}},
  "data": [
    {"molecule": "GUGGUCAGUCGAGUGGAAAAAAAAAAAAAAAAAA [A-rich]", "values": [
      {"measurement": "Kd", "setting": "[1]", "value": 5.7, "unit": "nM"},
      {"measurement": "Kd", "setting": "NUCB1 ΔZ (Homo sapiens)", "value": 0.3, "unit": "nM"},
      {"measurement": "Kd", "setting": "NUCB1 ΔN (Homo sapiens)", "value": 1.4, "unit": "nM"}
    ]},
    {"molecule": "GUGGUCAGUCGAGUGGGGGGGG [G-rich]", "values": [
      {"measurement": "Kd", "setting": "[1]", "value": 18.2, "unit": "nM"},
      {"measurement": "Kd", "setting": "NUCB1 ΔZ (Homo sapiens)", "value": 3.1, "unit": "nM"},
      {"measurement": "Kd", "setting": "NUCB1 ΔN (Homo sapiens)", "value": 5.3, "unit": "nM"}
    ]},
    {"molecule": "GUGGUCAGUCGAGUGGUUUUUUUUUUUUUUUUUU [U-rich]", "values": [
      {"measurement": "Kd", "setting": "[1]", "value": 0.2, "unit": "nM"},
      {"measurement": "Kd", "setting": "NUCB1 ΔZ (Homo sapiens)", "value": 0.4, "unit": "nM"},
      {"measurement": "Kd", "setting": "NUCB1 ΔN (Homo sapiens)", "value": 1.7, "unit": "nM"}
    ]},
    {"molecule": "B1", "values": [
      {"measurement": "stoichiometry N", "setting": "[2]", "value": 2}
    ]},
    {"molecule": "B2", "values": [
      {"measurement": "stoichiometry N", "setting": "[2]", "value": 2}
    ]},
    {"molecule": "B3", "values": [
      {"measurement": "Kd", "setting": "NUCB1 CaBD", "value": "5.2 ± 0.2", "unit": "nM"},
      {"measurement": "Kd", "setting": "NUCB1 ΔN", "value": "0.6 ± 0.09", "unit": "nM"},
      {"measurement": "Kd", "setting": "NUCB1 ΔZ", "value": "0.3 ± 0.01", "unit": "nM"}
    ]}
  ]
}
